We go through three molecules from article PMC10470053, “Diverse p120RasGAP interactions with doubly phosphorylated partners EphB4, p190RhoGAP, and Dok1” (The Journal of Biological Chemistry, 2023).

Common to all, as to conditions: both partners purified
The target in assay [1] is T1, RasGAP^232 (p120RasGAP SH2-SH3-SH2 region, residues 174-444) (human, C236S (stands in the printed letters) | C261S (stands in the printed letters) | …).
T1 construct: p120RasGAP, human, UniProt P20936, residues 174-444 (N-SH2, SH3, C-SH2) with four cysteine to serine mutations; the methods say that the hexahistidine tag was cut off with TEV, so G-S of the printed stretch probably stay before T174; also called WT RasGAP^232; source: E. coli Rosetta (DE3), purified (Ni-NTA, TEV cleavage, anion exchange, SEC); not shown: His6, N-terminal, cleaved
T1 chain: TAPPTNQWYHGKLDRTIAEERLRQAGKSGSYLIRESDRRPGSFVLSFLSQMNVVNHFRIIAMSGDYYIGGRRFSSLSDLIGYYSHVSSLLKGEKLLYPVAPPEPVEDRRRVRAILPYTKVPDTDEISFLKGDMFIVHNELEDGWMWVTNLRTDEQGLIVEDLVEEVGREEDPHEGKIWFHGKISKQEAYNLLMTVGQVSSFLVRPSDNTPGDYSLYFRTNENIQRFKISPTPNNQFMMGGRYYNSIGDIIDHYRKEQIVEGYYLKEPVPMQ
As to the kind of experiment: ITC; RasGAP^232 protein (WT or mutant) in the 190 µl sample cell, peptide in the syringe, 20 injections of 2.5 µl; 20 mM Tris pH 8, 250 mM NaCl; Nano ITC (TA Instruments); blank (constant) and independent models; values of single trials, averages and stdev. On the technique in general: Isothermal titration calorimetry measures the heat released or taken up as one component is titrated into another.

The target of assay [2] is T2, RasGAP^2(mut)32 (RasGAP^232 with R207A in the N-SH2 domain) (human, UniProt P20936 174-444, C236S | C261S | C372S | C402S | R207 to alanine).
T2 construct: p120RasGAP, human, UniProt P20936, residues 174-444; Made by site-directed mutagenesis of RasGAP^232, which holds the four cysteine to serine mutations; also called N-SH2 mutant; source: E. coli Rosetta (DE3), purified (same protocol as the WT counterpart); not shown: His6, N-terminal, cleaved
T2 sequence (looked up): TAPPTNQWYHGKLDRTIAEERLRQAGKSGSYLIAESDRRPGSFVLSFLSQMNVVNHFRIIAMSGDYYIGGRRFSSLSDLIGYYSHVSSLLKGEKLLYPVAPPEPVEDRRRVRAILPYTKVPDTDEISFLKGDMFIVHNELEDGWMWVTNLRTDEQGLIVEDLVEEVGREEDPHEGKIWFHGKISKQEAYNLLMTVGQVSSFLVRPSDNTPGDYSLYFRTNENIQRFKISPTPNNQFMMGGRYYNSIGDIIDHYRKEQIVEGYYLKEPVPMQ
The assay is described as above.

Assay [3] addresses T3, RasGAP^232(mut) (RasGAP^232 with R398E/K400E in the C-SH2 domain) (human, UniProt P20936 174-444, C236S | C261S | C372S | C402S | R398E | K400E).
T3 construct: p120RasGAP, human, UniProt P20936, residues 174-444; Made by site-directed mutagenesis of RasGAP^232, which holds the four cysteine to serine mutations; also called C-SH2 mutant; source: E. coli Rosetta (DE3), purified (same protocol as the WT counterpart); not shown: His6, N-terminal, cleaved
T3 sequence (looked up): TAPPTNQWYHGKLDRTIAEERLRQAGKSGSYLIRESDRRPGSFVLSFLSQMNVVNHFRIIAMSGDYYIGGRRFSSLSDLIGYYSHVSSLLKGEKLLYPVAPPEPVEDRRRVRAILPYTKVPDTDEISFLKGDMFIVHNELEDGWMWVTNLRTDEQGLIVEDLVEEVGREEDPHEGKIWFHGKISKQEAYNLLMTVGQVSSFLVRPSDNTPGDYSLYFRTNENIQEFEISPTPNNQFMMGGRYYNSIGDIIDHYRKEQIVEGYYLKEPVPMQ
Described as above.

Assay [4] deals with T4, RasGAP^232(mut) (RasGAP^232 with R398E/K400E in the C-SH2 domain) (human, UniProt P20936 174-444, R398E | K400E | C236 | C261 | C372 | C402).
T4 construct: p120RasGAP (RASA1), human, UniProt P20936, residues 174-444, mutant of RasGAP^232 in the C-SH2 domain; also called C-SH2 mutant; source: E. coli Rosetta (DE3), purified (same protocol as the WT: Ni-NTA, TEV cleavage, anion exchange, SEC)
T4 sequence (looked up): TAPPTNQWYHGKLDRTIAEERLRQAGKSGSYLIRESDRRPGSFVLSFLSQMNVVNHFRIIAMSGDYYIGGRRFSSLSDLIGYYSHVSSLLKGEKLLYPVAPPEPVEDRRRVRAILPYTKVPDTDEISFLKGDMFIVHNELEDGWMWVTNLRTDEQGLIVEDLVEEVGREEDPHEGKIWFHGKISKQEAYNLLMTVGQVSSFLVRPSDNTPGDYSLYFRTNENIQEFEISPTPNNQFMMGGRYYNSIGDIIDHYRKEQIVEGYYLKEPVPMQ
As to the kind of experiment: ITC; protein in the 190 ul sample cell, titrated 20 times with 2.5 ul peptide from the syringe; 20 mM Tris pH 8, 250 mM NaCl; Nano ITC (TA Instruments); independent binding model.

Assay [5] deals with T5, RasGAP^2(mut)32 (RasGAP^232 with R207A in the N-SH2 domain) (human, UniProt P20936 174-444, R207 to alanine | C236 | C261 | C372 | C402).
T5 construct: p120RasGAP (RASA1), human, UniProt P20936, residues 174-444, mutant of RasGAP^232 in the N-SH2 domain; also called N-SH2 mutant; source: E. coli Rosetta (DE3), purified (same protocol as the WT: Ni-NTA, TEV cleavage, anion exchange, SEC)
T5 sequence (looked up): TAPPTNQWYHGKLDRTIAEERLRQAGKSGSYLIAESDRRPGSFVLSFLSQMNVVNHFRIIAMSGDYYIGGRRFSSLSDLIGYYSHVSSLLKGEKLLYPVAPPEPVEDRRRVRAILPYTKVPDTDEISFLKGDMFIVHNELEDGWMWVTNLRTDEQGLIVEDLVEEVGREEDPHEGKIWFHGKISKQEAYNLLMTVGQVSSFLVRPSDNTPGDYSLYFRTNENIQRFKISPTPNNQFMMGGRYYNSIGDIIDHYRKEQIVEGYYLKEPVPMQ
The description is as above.

Assay [6] concerns the target T6, RasGAP^232 (p120RasGAP N-SH2, SH3 and C-SH2 domains, residues 174-444) (human, UniProt P20936 174-444, C236 | C261 | C372 | C402).
T6 construct: p120RasGAP (RASA1), human, UniProt P20936, residues 174-444 (N-SH2, SH3, C-SH2), with four cysteine to serine mutations; also called WT RasGAP^232; apo RasGAP^232; source: E. coli Rosetta (DE3), purified (Ni-NTA, TEV cleavage, anion exchange, SEC)
T6 sequence (looked up): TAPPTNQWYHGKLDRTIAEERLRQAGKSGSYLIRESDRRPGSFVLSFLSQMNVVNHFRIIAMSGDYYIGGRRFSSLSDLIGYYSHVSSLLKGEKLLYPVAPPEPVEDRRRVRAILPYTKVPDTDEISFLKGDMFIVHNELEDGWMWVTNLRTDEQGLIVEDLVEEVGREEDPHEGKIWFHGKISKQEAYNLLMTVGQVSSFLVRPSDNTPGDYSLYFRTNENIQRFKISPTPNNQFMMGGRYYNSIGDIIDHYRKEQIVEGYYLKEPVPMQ
The description is as above.

The term Kd denotes the free concentration of one partner at which half of the binding sites on the other are occupied at equilibrium, for simple one-to-one binding. Broadly, the stoichiometry N is the number of molecules, sites or subunits per partner or assembly.

Values joined by “and” are separate entries in the source; they are usually repeats but may differ in a detail not shown here. Identical values can stand only once. Square brackets hold non-standard residues; d marks the D form. pY = N[C@@H](Cc1ccc(OP(=O)(O)O)cc1)C(=O)O

B1: doubly phosphorylated EphB4 peptide (residues 586-602) (peptide)
peptide: Ac-GTKV[pY]IDPFT[pY]EDPNEA-NH2
SMILES: CC[C@H](C)[C@H](NC(=O)[C@H](Cc1ccc(OP(=O)(O)O)cc1)NC(=O)[C@@H](NC(=O)[C@H](CCCCN)NC(=O)[C@@H](NC(=O)CNC(C)=O)[C@@H](C)O)C(C)C)C(=O)N[C@@H](CC(=O)O)C(=O)N1CCC[C@H]1C(=O)N[C@@H](Cc1ccccc1)C(=O)N[C@H](C(=O)N[C@@H](Cc1ccc(OP(=O)(O)O)cc1)C(=O)N[C@@H](CCC(=O)O)C(=O)N[C@@H](CC(=O)O)C(=O)N1CCC[C@H]1C(=O)N[C@@H](CC(N)=O)C(=O)N[C@@H](CCC(=O)O)C(=O)N[C@@H](C)C(N)=O)[C@@H](C)O
notes: EphB4, UniProt P54760, juxtamembrane residues 586-602; also called pYpY EphB4; pYpYEphB4; source: synthetic peptide, bought: GenScript
As for B1, in assay [1], the Kd was 1300 nM and 1500 nM and 2400 nM and 2700 nM; the “stoichiometry N” value was 0.9 and 1 and 1.1. In assay [2], the Ka is 40000 M⁻¹ and 30000 M⁻¹ and 20000 M⁻¹; the dissociation constant Kd is 25000 nM and 32000 nM and 60000 nM and 38000 nM; the “stoichiometry N” value is 0.7 and 1 and 0.9 and 1.2. For the same molecule, in assay [3], the Ka is 900000 M⁻¹ and 700000 M⁻¹ and 1e+06 M⁻¹; the Kd was 1100 nM and 1500 nM and 1000 nM and 800 nM; the “stoichiometry N” value was 0.8 and 0.7.

B2: doubly phosphorylated EphB4 peptide (residues 586-602, pY590 and pY596) (peptide)
peptide: Ac-GTKV[pY]IDPFT[pY]EDPNEA-NH2
SMILES: CC[C@H](C)[C@H](NC(=O)[C@H](Cc1ccc(OP(=O)(O)O)cc1)NC(=O)[C@@H](NC(=O)[C@H](CCCCN)NC(=O)[C@@H](NC(=O)CNC(C)=O)[C@@H](C)O)C(C)C)C(=O)N[C@@H](CC(=O)O)C(=O)N1CCC[C@H]1C(=O)N[C@@H](Cc1ccccc1)C(=O)N[C@H](C(=O)N[C@@H](Cc1ccc(OP(=O)(O)O)cc1)C(=O)N[C@@H](CCC(=O)O)C(=O)N[C@@H](CC(=O)O)C(=O)N1CCC[C@H]1C(=O)N[C@@H](CC(N)=O)C(=O)N[C@@H](CCC(=O)O)C(=O)N[C@@H](C)C(N)=O)[C@@H](C)O
notes: EphB4 juxtamembrane region, UniProt P54760, residues 586-602; also called pYpY EphB4; pYpYEphB4; source: synthetic peptide, bought: GenScript
In the case of B2, the figures for the equilibrium dissociation constant (Kd) in assay [4], in assay [5] and in assay [6] were 1000 ± 300 nM, 40000 ± 20000 nM and 2000 ± 700 nM, respectively. Besides, the figures for the dH in assay [4], in assay [5] and in assay [6] were -5.98 ± 0.239 kcal/mol, -7.89 ± 1.43 kcal/mol and -5.74 ± 0.717 kcal/mol, respectively. Also, the “stoichiometry N” value worked out at 0.75 ± 0.02 in assay [4], 0.9 ± 0.2 in assay [5] and 1 ± 0.1 in assay [6].

B3: doubly phosphorylated Dok1 peptide (residues 291-322) (peptide)
peptide: Ac-SPPAL[pY]AEPLDSLRIAPCPSQDSL[pY]SDPLDST-NH2
SMILES: CC[C@H](C)[C@H](NC(=O)[C@H](CCCNC(=N)N)NC(=O)[C@H](CC(C)C)NC(=O)[C@H](CO)NC(=O)[C@H](CC(=O)O)NC(=O)[C@H](CC(C)C)NC(=O)[C@@H]1CCCN1C(=O)[C@H](CCC(=O)O)NC(=O)[C@H](C)NC(=O)[C@H](Cc1ccc(OP(=O)(O)O)cc1)NC(=O)[C@H](CC(C)C)NC(=O)[C@H](C)NC(=O)[C@@H]1CCCN1C(=O)[C@@H]1CCCN1C(=O)[C@H](CO)NC(C)=O)C(=O)N[C@@H](C)C(=O)N1CCC[C@H]1C(=O)N[C@@H](CS)C(=O)N1CCC[C@H]1C(=O)N[C@@H](CO)C(=O)N[C@@H](CCC(N)=O)C(=O)N[C@@H](CC(=O)O)C(=O)N[C@@H](CO)C(=O)N[C@@H](CC(C)C)C(=O)N[C@@H](Cc1ccc(OP(=O)(O)O)cc1)C(=O)N[C@@H](CO)C(=O)N[C@@H](CC(=O)O)C(=O)N1CCC[C@H]1C(=O)N[C@@H](CC(C)C)C(=O)N[C@@H](CC(=O)O)C(=O)N[C@@H](CO)C(=O)N[C@H](C(N)=O)[C@@H](C)O
notes: Dok1, UniProt Q99704, residues 291-322; also called pYpY Dok1; pYpYDok1; source: synthetic peptide, bought: GenScript
With B3, in assay [1], the Ka was 6.3e+07 M⁻¹ and 2.1e+07 M⁻¹ and 4.3e+07 M⁻¹ and 4e+07 M⁻¹; the Kd is 16 nM and 47 nM and 23 nM; the “stoichiometry N” value is 0.9 and 0.8 and 0.7.
